Laboratory results as given in the DeepSol protein solubility set.

Experiment: soluble on expression in E. coli; label from the status in PepcDB or PDB records

| Sequence | soluble on expression in E. coli |
| --- | --- |
| MLSRICGNGIRLTRTRLQFQPSIVTFRDYSNPAPKRGFLNNLIDNVRDEMQKNKELQEHQQQLKARMQELNESDALKDARKKFEIVEKETLKSSEVVKQKIEELSDHMKKMVHEIQKTEAGKKMTEAGAEALKQARKAAEHVEKVAEKVGDTEVYKHVSTSMKTVKDEIDNIADVRMYSRPEALTKRTDGFDLEKERVVEANDSATDVTLHKDSKWYSGWKNFSESNTYYHKLLDWKIKYDESDNMAVRMMRGVTEKIGSVFSGQNEVSEVLTEIHKIDANFDKQEWLRFCETKIIPNILEAFIRFDLEVLQSWCHERAYTQLSTVVKEYQKMHFSTKDSRIIDINKVEMATGKMMEQGPVLIISFQVYMINVTKNADGKVVEGDPDNPKRINHIWVLCRDVEEYNPALAWKLLEVHMQETPLAL | not soluble |
| MSEKLRRCRKELTAAIDRAFEGVRHSQECTAQQRLDAPSLTSQPVHRLLCRNPLAACPSAAPYSGASCAPESENPAFGTHHIPVNSKLQQPLYPKRKPLTSKENVLMQSSILARDRQFWRAAGDGEDWRKDSLRKDMERDLKADPNVLLSSSSQEVTKDLLDMIDHTSIRTIEELAGKLEFENELNRVCGHCQDSPFKEEAWALLVDESPQKALDADPGSLKQALDDQNIVETVLDLEEDYNLMTSFKYQIE | soluble |
| MSNLDNPGIYYQERFFANDGVPDTGRELIAEYRQLITQFRNFIRDFSTGGFGMIYRDQLKRNYFSHEYRLEINLNHLKNFDEDIEMKLRKFPGKVLPALEEAAKIVADEITTPRPKGEEKLHDIQVTLTLDEYPTSLRQVKSAQVSQVVKISGIIVAAAQVRSKATKVTLQCRQCKHTIPDVSIKPGLEGFALPRTCAAPQQGQMQRCPIDPYIMLPDKCECVDYQTLKLQENPEDVPHGEMPRHLQLFTERYLTDKVVPGNRVTIVGVYSIKKLIQKKGGDKSLQGIRTPYLRVLGIHMETSGPGRTNFTTFTPEEERMFKTLAQRKDAYELIAKSIAPSIYGSADIKKSIACLLFGGARKKLPDGITRRGDINVLLLGDPGTAKSQLLKFVEQVSPIGVYTSGKGSSAAGLTASVIRDPQSRSFIMEGGAMVLADGGVVCIDEFDKMREDDRVAIHEAMEQQTISIAKAGITTTLNSRCSVLAAANSVYGRWDESRGDDNIDFMPTILSRFDMIYIVKDTHDVLKDATLAKHVIEVHVNASAAKERDIAGVPKTATTDSDGVMTMFDTDGFLTIEFLKKFVTYARLNCGPRLTPQASEKLVNHYVKMRNPVVNADAFKSGKKAHNSAIPITVRQLEAIVRIAESIAKMELQQFATDKHVEEALRLFRVSTIEAAATGNLAGVEGFTSTADQEALNRIEVQMKKRFAIGTHVSEHLIVQDFVARQHYRESLVKKVIDNLVRRGDLQQKMQRKMLYRVR | not soluble |
| MGHHHHHHSHMEEAGSVALEELVEKEKDRFFSGVDYIVISDNLWISQRKPAITYGTRGNSYFMVEVKCRDQDFHSGTFGGILHEPMADLVALLGSLVDSSGHILVPGIYDEVVPLTEEEINTYKAIHLDLEEYRNSSRVEKFLFDTKEEILMHLWRYPSLSIHGIEGAFDEPGTKTVIPGRVIGKFSIRLVPHMNVSAVEKQVTRHLEDVFSKRNSSNKMVVSMTLGLHPWIANIDDTQYLAAKRAIRTVFGTEPDMIRDGSTIPIAKMFQEIVHKSVVLIPLGAVDDGEHSQNEKINRWNYIEGTKLFAAFFLEMAQLH | not soluble |
| MGHHHHHHSHMGNDKRSQIFTLSRYAGILRRCLKENAMSAQKPGLHPRNRHHSRYDLATLCQVNPELRQFLTLTPAGEQSVDFANPLAVKALNKALLAHFYAVANWDIPDGFLCPPVPGRADYIHHLADLLAEASGTIPANASILDIGVGANCIYPLIGVHEYGWRFTGSETSSQALSSAQAIISSNPGLNRAIRLRRQKESGAIFNGIIHKNEQYDATLCNPPFHDSAAAARAGSERKRRNLGLNKDDALNFGGQQQELWCEGGEVTFIKKMIEESKGFAKQVMWFTSLVSRGENLPPLYRALTDVGAVKVVKKEMAQGQKQSRFIAWTFMNDEQRRRFVNRQR | soluble |
| MFKDFFNRTKKKKYLTVQDSKNNDVPAGIMTKCPKCKKIMYTKELAENLNVCFNCDHHIALTAYKRIEAISDEGSFTEFDKGMTSANPLDFPSYLEKIEKDQQKTGLKEAVVTGTAQLDGMKFGVAVMDSRFRMGSMGSVIGEKICRIIDYCTENRLPFILFSASGGARMQEGIISLMQMGKTSVSLKRHSDAGLLYISYLTHPTTGGVSASFASVGDINLSEPKALIGFAGRRVIEQTINEKLPDDFQTAEFLLEHGQLDKVVHRNNMRQTLSEILKIHQEVTK | not soluble |
| MQSFNSGSTKIHNAFPEESTRPQKAEGNTAMNILVLGSDSRGSSDADVEANTATDQRADTLMLVHVPADRKKTYAISLMRDLWIDIPGVGESKINAALAYGGVPLMVQTVESLLQQRIDHVAMIDFQGFKGLTDALGGVEVDVRIPFAPSSGPKAGQVYDAGKQTLNGDEALAFVRERKAFSDGDYQRVRNQQAYLKAIIGKVIARETLTNPVTISNMVSAVSPFVSVDKDFDAAAIGSLALSMKDVRAQDTVMFTLPTLGTGTSPDGQSIVLADTTAIADVTAALAKDQVDAYITAHALDKGFLEHHHHHH | soluble |
| MFNCLGMGNRDFIEGASGATWVDLVLEGDSCLTIMANDKPTLDVRMINIEASQLAEVRSYCYHASVTDISTVARCPTTGEAHNEKRADSSYVCKQGFTDRGWGNGCGFFGKGSIDTCAKFSCTSKAIGRTIQPENIKYKVGIFVHGTTTSENHGNYSAQVGASQAAKFTVTPNAPSVTLKLGDYGEVTLDCEPRSGLNTEAFYVMTVGSKSFLVHREWFHDLALPWTSPSSTAWRNRELLMEFEGAHATKQSVVALGSQEGGLHQALAGAIVVEYSSSVMLTSGHLKCRLKMDKLALKGTTYGMCTEKFSFAKNPVDTGHGTVVIELSYSGSDGPCKIPIVSVASLNDMTPVGRLVTVNPFVATSSANSKVLVEMEPPFGDSYIVVGRGDKQINHHWHKAGSTLGKA | not soluble |
| AHHHHHHGSFRLRDFEYYNRTVFLRVDLNSPMSNGKIISDARFRAVLPTIKYLIESGAKVVVGTHQGKPYSEEYSTTEEHARILSELLNMHVEYVEDIFGKYARERIKAMKPGEVIVLENLRFSAEEVKNATIEECEKTFFVRKLSQVIDLVVNDAFAAAHRSQPSLVGFARIKPMIMGFLMEKEVDALTKAYESEEKPRVYVLGGAKVDDSLKVAENVLRKEKADLILTGGLVGQLFTLAKGFDLGRENIKFLEKKGILKYVDWAEKILDEFYPYVRTPVDFAIDFKGERVEIDLLSDEKRLFDEYPILDIGSRTVEKYREILLKARIIVANGPMGVFEREEFAVGTIGVFKAIGESPAFSVIGGGHSIASIYKYNITGISHISTGGGAMLTFFAGEKLPVLEALKISYEKFSNLLS | soluble |
| MVKTTEVVSEVSKVAGVRPWAGIFVVEIQEDILADEFTFEALMRTLPLASQARILNKKSFHDRCSNLCSQLLQLFGCSIVTGLNFQELKFDKGSFGKPFLDNNRFLPFSMTIGEQYVAMFLVKCVSTDEYQDVGIDIASPCNYGGREELELFKEVFSEREFNGLLKASDPCTIFTYLWSLKESYTKFTGTGLNTDLSLIDFGAISFFPAEGASMCITLDEVPLIFHSQWFNNEIVTICMPKSISDKINTNRPKLYNISLSTLIDYFIENDGL | soluble |
| MDEYSPKRHDIAQLKFLCETLYHDCLANLEESNHGWVNDPTSAVNLQLNELIEHIATFALNYKIKYNEDNKLIAQIDEYLDDTFMLFSSYGINTQDLQKWRKSGNRLFRCFVNATRANPVSLSCLEHHHHHH | not soluble |
| MLSLDQIPHHIRHGIVGSRLIQIRGRVTQVTGTLLKAVVPGVRIGELCYLRNPDNSLSLQAEVIGFAQHQALLIPLGEMYGISSNTEVSPTGTMHQVGVGEHLLGQVLDGLGQPFDGGHLPEPAAWYPVYQDAPAPMSRKLITTPLSLGIRVIDGLLTCGEGQRMGIFAAAGGGKSTLLASLIRSAEVDVTVLALIGERGREVREFIESDLGEEGLRKAVLVVATSDRPSMERAKAGFVATSIAEYFRDQGKRVLLLMDSVTRFARAQREIGLAAGEPPTRRGYPPSVFAALPRLMERAGQSSKGSITALYTVLVEGDDMTEPVADETRSILDGHIILSRKLAAANHYPAIDVLRSASRVMNQIVSKEHKTWAGDLRRLLAKYEEVELLLQIGEYQKGQDKEADQAIERMGAIRGWLCQGTHELSHFNETLNLLETLTQ | not soluble |
| GHHHHHHAIAENLYFQSHGHGGYDSDFSDDEHCGESSKRKKRTVEDDLLLQKPFQKEKHGKVAHKQVAAELLDREEARNRRFHLIAMDAYQRHRKFVNDYILYYGGKKEDFKRLGENDKTDLDVIRENHRFLWNEEDEMDMTWEKRLAKKYYDKLFKEYCIADLSKYKENKFGFRWRVEKEVISGKGQFFCGNKYCDKKEGLKSWEVNFGYIEHGEKRNALVKLRLCQECSIKLNFHHRRKEIKSKKRKDKTKKDCEESSHKKSRLSSAEEASKKKDKGHSSSKKSEDSLLRNSDEEESASESELWKGPLPETDEKSQEEEFDEYFQDLFL | soluble |
| MAHHHHHHMSISIRSTAQRQLARRQPPTTSSSSVSLPRAAFAPASRSASAVEATSESASSSQVPEQQEATPTRILDNARSSSCAAAPPPFSASSDQRSDQINKCIHDTSTLTSKPPPSASSASSRGAAAPSLPPSAPSSTTGAPRSGHDAEPEGLHDAASSTAAPSGAGSSAVANSQRTAASHSLLYSVSRFTEPVKRIILIRNGRSEANEDVRAYVQTPDWRIPLVEEGKREAIAAGRALSELIGDGPVYFYYSPYIRSRQSLRYVLQGFDEARLSGLSHSREWWEDEETAAVASAAAAAESSTLKCATASADEAGSPPLLAPAPSAISTNATSSDAQCCFHRDPSLVLNRGTSNNIIGVREDVRLRDGDIGRYTSADELMHHLVERERYGRFFYRFPFGESGADVCDRVTSFLDAFQRERVEFPMDTSVVIITHGLTMRMLIKRWFYLTVETFHKMKSPPPGSLCTLTRLHHRSCFRLDECCVESMNLPLSLNEFNGYKYRNKQLLGSMSSGAPYM | not soluble |
| AHHHHHHGSVEQDPYEIVIKQLERAAQYMEISEEALEFLKRPQRIVEVTIPVEMDDGSVKVFTGFRVQHNWARGPTKGGIRWHPEETLSTVKALAAWMTWKTAVMDLPYGGGKGGIIVDPKKLSDREKERLARGYIRAIYDVISPYEDIPAPDVYTNPQIMAWMMDEYETISRRKTPAFGIITGKPLSIGGSLGRIEATARGASYTIREAAKVLGWDTLKGKTIAIQGYGNAGYYLAKIMSEDFGMKVVAVSDSKGGIYNPDGLNADEVLKWKNEHGSVKDFPGATNITNEELLELEVDVLAPAAIEEVITKKNADNIKAKIVAEVANGPVTPEADEILFEKGILQIPDFLCNAGGVTVSYFEWVQNITGYYWTIEEVRERLDKKMTKAFYDVYNIAKEKNIHMRDAAYVVAVQRVYQAMLDRGWVKH | soluble |
| MPSKKKKIVVIGRSNLQNLYIHTILLKKLPAEIYLIDEQAKTSVQDFEYASYYHSSATVNTGTFNECRSADLVLFFQEEMSNESFSNEDNLALIKEKVKKMMATGFQGIVLVATAESNIVASLIKHFSGLPANQIITPGTMLATSYFQVEIAKLFKISPKNVHGYIIGESTQDVIPVWSRAFLGGKPILSYLAEEQKRITSDDLQNLTNMITKIPDFPVETKDGCSFRFSTVTVLAELTEVILRDEARVLTVGVEVKEAYGLERPVFVSVPAVVGAEGVRELLELNLSDDEQKELKRITTKTTEKLGLLHNKGGIS | not soluble |
| MDDPSITPTEKCRFYLGITLRDDTKARPVPGIMQIPGGRYAVFRHTGSYSSLHKVYRSIYEEWFPKSKYHPQSTFSFEMYMNHPSTTETSELLTEIYIPVIRK | not soluble |
| VKSKAKKTVDKHSDEYKIRRERNNIAVRKSRDKAKMRNLETQHKVLELTAENERLQKKVEQLSRELSTLRNLFKQLPEPLLASSGHC | soluble |
